Laboratory results from US20180016322A1 (INSERM INSTITUT NATIONAL DE LA SANTE ET DE LA RECHERCHE …, published 2018).

Target: synthetic MBP-HIS-EBOV-GP fusion peptide (Zaire Ebolavirus (EBOV), UniProt P0AEX9 27-392 = MBP)
Assay: ELISA on coated recombinant fusion protein

B1: murine monoclonal antibody 3327 (antibody, V domains shown)
VH: EVQLQESGPSLGKPSQTLSLTCSVTGDSITSGYWNWIRKFPGSKLEYMGYITSSGSTYYNPSLKSRISITRDTSKNQYYLQLNSVTSEDTATYYCAREGARSSGGWYFDVWGAGTTVTVSS
VL: DIVMTQSHKFMSTSVGDRVSITCKASQDVSSAVVWYQQKPGQSPKLLIYWASTRHTGVPDRFTGSGSGTDYTLTISSVQAEDLALYYCQQHYSTPTFGGGTKLEIKR
binding result: no binding
